For 3 sequences, Kd results are on record in the Immune Epitope Database (IEDB).

Experiment [1] deals with HLA-A*02:16. Nature of the experiment: IEDB peptide-MHC binding, purified MHC/direct/fluorescence; filed as Kd, often an IC50 or EC50 that approximates it; ≥ and ≤ were set here for values at or beyond the usual limits of such assays. Conditions: source organism: Listeria monocytogenes serotype 4b str. H7858.
In the next experiment the target is HLA-A*69:01. The description is as above.
For experiment [2], the target named is HLA-A*02:01. The description is as above.
The target in a further experiment is HLA-A*02:50. Kind of experiment: IEDB peptide-MHC binding, purified MHC/competitive/fluorescence; filed as Kd, often an IC50 or EC50 that approximates it; ≥ and ≤ were set here for values at or beyond the usual limits of such assays.
Experiment [3] concerns the target HLA-A*02:06. Nature of the experiment: IEDB peptide-MHC binding, purified MHC/direct/fluorescence; filed as Kd, often an IC50 or EC50 that approximates it; ≥ and ≤ were set here for values at or beyond the usual limits of such assays. The following applies: source organism: Yersinia pestis CA88-4125.
The target of the next experiment is HLA-B*27:03. The experiment is described as above. Conditions: source organism: Yersinia pestis CA88-4125.
In experiment [4] the target is HLA-A*02:11. Described as above. The following applies: source organism: Yersinia pestis CA88-4125.
The target in experiment [5] is HLA-A*03:01. The experiment is described as above. Conditions: source organism: Yersinia pestis CA88-4125.
Experiment [6] has as its target HLA-A*26:01. The description is as above. Conditions: source organism: Yersinia pestis CA88-4125.
A further experiment concerns the target HLA-B*57:01. The description is as above. The following applies: source organism: Yersinia pestis CA88-4125.
A further experiment has as its target HLA-B*51:01. Described as above. Conditions: source organism: Yersinia pestis CA88-4125.
In a further experiment the target is HLA-A*24:03. The description is as above. The following applies: source organism: Yersinia pestis CA88-4125.
The target of another experiment is HLA-B*39:01. The experiment is described as above. The following applies: source organism: Yersinia pestis CA88-4125.
Another experiment deals with HLA-A*29:02. The description is as above. Conditions: source organism: Yersinia pestis CA88-4125.
The target of experiment [7] is HLA-B*18:01. The experiment is described as above. Conditions: source organism: Yersinia pestis CA88-4125.
In experiment [8] the target is HLA-B*46:01. Described as above. Conditions: source organism: Yersinia pestis CA88-4125.
The target of a further experiment is HLA-B*07:02. Nature of the experiment: IEDB peptide-MHC binding, purified MHC/competitive/fluorescence; filed as Kd, often an IC50 or EC50 that approximates it; ≥ and ≤ were set here for values at or beyond the usual limits of such assays.
For a further experiment, the target named is HLA-B*53:01. The experiment is described as above. The following applies: source organism: Yersinia pestis CO92.
The target of another experiment is HLA-B*44:02. The experiment is described as above. Conditions: source organism: Yersinia pestis CO92.
A further experiment deals with HLA-B*27:05. The experiment is described as above.
The next experiment deals with HLA-B*14:02. The experiment is described as above. The following applies: source organism: Yersinia pestis CO92.
Another experiment has as its target HLA-A*30:01. Described as above.
A further experiment has as its target HLA-B*58:01. Described as above.
The target of the next experiment is HLA-A*66:01. The description is as above. Conditions: source organism: Yersinia pestis CO92.
The target in a further experiment is HLA-B*40:01. Described as above.
A further experiment deals with HLA-A*01:01. The experiment is described as above.
A further experiment addresses HLA-A*30:02. The experiment is described as above. Conditions: source organism: Yersinia pestis CO92.
A further experiment addresses HLA-A*11:01. The description is as above.
In another experiment the target is HLA-A*23:01. The description is as above. The following applies: source organism: Yersinia pestis CO92.
In a further experiment the target is HLA-B*08:01. Described as above. Conditions: source organism: Yersinia pestis CO92.
Experiment [9] addresses HLA-A*02:06. Described as above. Conditions: source organism: Corynebacterium glutamicum ATCC 13032.
The target in a further experiment is HLA-A*02:12. Described as above. Conditions: source organism: Corynebacterium glutamicum ATCC 13032.
In experiment [10] the target is HLA-A*02:11. The experiment is described as above. The following applies: source organism: Corynebacterium glutamicum ATCC 13032.
Experiment [11] deals with HLA-A*03:01. The experiment is described as above. Conditions: source organism: Corynebacterium glutamicum ATCC 13032.
The target in another experiment is HLA-A*02:19. The experiment is described as above. The following applies: source organism: Corynebacterium glutamicum ATCC 13032.
The target of experiment [12] is HLA-A*26:01. The description is as above. The following applies: source organism: Corynebacterium glutamicum ATCC 13032.
Another experiment deals with HLA-B*15:01. The experiment is described as above. Conditions: source organism: Corynebacterium glutamicum ATCC 13032.
Experiment [13] addresses HLA-A*02:16. The description is as above. Conditions: source organism: Corynebacterium glutamicum ATCC 13032.
A further experiment has as its target HLA-A*31:01. The description is as above. Conditions: source organism: Corynebacterium glutamicum ATCC 13032.
Another experiment deals with HLA-B*35:01. The description is as above. Conditions: source organism: Corynebacterium glutamicum ATCC 13032.
Experiment [14] concerns the target HLA-B*18:01. The description is as above. Conditions: source organism: Corynebacterium glutamicum ATCC 13032.
A further experiment addresses HLA-A*24:02. The description is as above. The following applies: source organism: Corynebacterium glutamicum ATCC 13032.
For experiment [15], the target named is HLA-A*02:01. The description is as above. The following applies: source organism: Corynebacterium glutamicum ATCC 13032.
The target in experiment [16] is HLA-B*46:01. The experiment is described as above. Conditions: source organism: Corynebacterium glutamicum ATCC 13032.
The next experiment concerns the target HLA-A*02:03. The experiment is described as above. Conditions: source organism: Corynebacterium glutamicum ATCC 13032.
Setting [17] is: source organism: Listeria monocytogenes.
Setting [18] is: source organism: Yersinia pestis CA88-4125.
The mark [19] stands for this setting: source organism: Yersinia pestis CO92.
The mark [20] stands for this setting: source organism: Corynebacterium glutamicum ATCC 13032.

For orientation: Kd means the free concentration of one partner at which half of the binding sites on the other are occupied at equilibrium, for simple one-to-one binding. Higher therefore signals weaker binding. With ALVSEVTEV, the Kd with HLA-A*02:16 [1] is 0.002 µM; in the experiment with HLA-A*69:01 (setting [17]), 1.92 µM; with HLA-A*02:01 [2] (setting [17]), 0.0797 µM; with HLA-A*02:50 (source organism: Listeria monocytogenes EGD-e), at most 0.0001 µM.
Turning to QQRPDLILV, the Kd in the experiment with HLA-A*02:06 [3] was 0.17 µM; with HLA-B*27:03, at least 20 µM; in the experiment with HLA-A*02:11 [4], at least 20 µM; in the experiment with HLA-A*03:01 [5] it was at least 20 µM; in the experiment with HLA-A*26:01 [6], at least 20 µM; in the experiment with HLA-B*57:01, at least 20 µM. Further, the Kd with HLA-B*51:01 is at least 20 µM; in the experiment with HLA-A*24:03 it was at least 20 µM; with HLA-B*39:01, at least 20 µM; in the experiment with HLA-A*69:01 (setting [18]), at least 20 µM; with HLA-A*29:02, 0.089 µM; with HLA-B*18:01 [7], at least 20 µM. Further, the Kd is 3.43 µM in the experiment with HLA-A*02:01 [2] (setting [18]); at least 20 µM with HLA-B*46:01 [8]; at least 5 µM with HLA-B*07:02 (setting [19]); at least 5 µM with HLA-B*53:01; at least 5 µM with HLA-B*44:02; at least 5 µM with HLA-B*27:05 (setting [19]). In addition, the Kd with HLA-B*14:02, with HLA-A*30:01 (setting [19]), in the experiment with HLA-B*58:01 (setting [19]), with HLA-A*66:01, with HLA-B*40:01 (setting [19]) and with HLA-A*01:01 (setting [19]) was at least 5 µM in each case. The Kd with HLA-A*30:02 is at least 20 µM; in the experiment with HLA-A*11:01 (setting [19]) it was at least 5 µM; with HLA-A*23:01, at least 5 µM; with HLA-B*08:01 it was at least 5 µM.
As for HLPELIWRS, the Kd with HLA-A*02:06 [9] is 0.0022 µM; with HLA-B*07:02 (setting [20]), at least 20 µM; with HLA-A*02:12, 0.8 µM; with HLA-A*02:11 [10], 0.0267 µM; with HLA-A*03:01 [11], at least 20 µM; with HLA-A*02:19, at least 20 µM. Moreover, the Kd in the experiment with HLA-B*27:05 (setting [20]) is at least 20 µM; with HLA-A*02:50 (setting [20]), 0.0136 µM; with HLA-A*26:01 [12], at least 20 µM; with HLA-B*15:01 it was at least 20 µM; with HLA-A*30:01 (setting [20]), at least 20 µM; in the experiment with HLA-A*02:16 [13] it was 0.097 µM. Further, the Kd in the experiment with HLA-A*31:01, with HLA-B*58:01 (setting [20]), with HLA-B*35:01, with HLA-B*40:01 (setting [20]), in the experiment with HLA-A*01:01 (setting [20]) and with HLA-B*18:01 [14] was at least 20 µM throughout. For the same sequence, the Kd was at least 20 µM in the experiment with HLA-A*24:02; 0.976 µM with HLA-A*02:01 [15]; at least 20 µM with HLA-A*11:01 (setting [20]); at least 20 µM with HLA-B*46:01 [16]; 0.95 µM in the experiment with HLA-A*02:03.
